Measurements reported in US6723697B2, “IL-16 antagonists” (Research Corporation Technologies, Inc., priority 1999, dated 2004).

How the values were obtained:
anti-CD4 antibody (OKT4) = assay: OKT4-induced migration of T-cells; type: cell-based; conditions: OKT4 1 μg/ml, co-incubation
IL-16 = target: T1, IL-16 (Mus musculus, UniProt O54824); assay: IL-16-induced migration of human T-cells; type: cell-based; conditions: for inhibition of IL-16-mediated biological activity (migration of human T-cells): concentration not given; for effect on IL-16-induced migration of human T-cells: any concentration
T1 construct: polyhistidine fusion protein containing the 119 C-terminal residues encoded by the previously reported murine cDNA; polyhistidine (cleaved yes); made in house
T1 sequence (O54824 1204-1322): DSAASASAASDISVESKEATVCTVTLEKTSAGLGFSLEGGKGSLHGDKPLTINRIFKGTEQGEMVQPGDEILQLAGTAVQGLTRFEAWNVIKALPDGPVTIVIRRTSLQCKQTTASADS

HIV-1 gp120 = HIV-1 gp120 (Human immunodeficiency virus type 1 group M subtype B, UniProt P04578); conditions: gp120 5 μg/ml, co-incubation
[1] = target: T2, rIL-16 / GST-murine D3D4 fusion protein (Mus musculus, UniProt O54824); assay: in vitro binding of 35S-labeled murine rIL-16 to GST-murine D3D4 fusion protein; conditions: each peptide 10^-5 M, 10 ug/ml
T2 construct: murine IL-16 cDNA construct in pET-16b expressing the C-terminal 119 amino acids of IL-16; polyhistidine (pET-16b vector); made in house; host or cells: IL-16: coupled in vitro transcription-translation (TNT T7, Promega); GST-D3D4: E. coli, vector pGEX-5X.1
T2 sequence (O54824 1205-1322 limits assumed): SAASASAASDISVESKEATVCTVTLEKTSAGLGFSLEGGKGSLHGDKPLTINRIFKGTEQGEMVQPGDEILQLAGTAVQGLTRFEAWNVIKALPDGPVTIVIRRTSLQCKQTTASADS
Procedure: Complexes were isolated by centrifugation, then bound rIL-16 was released by boiling in SDS-PAGE buffer, resolved by SDS-PAGE, and detected by autoradiography. Specificity of the interaction between rIL-16 and D3D4 was assessed by competition with an excess of unlabeled rIL-16. ^35S-labeled rIL-16 incubated with GST (lane 1); ^35S-labeled rIL-16 incubated with GST-D3D4 (lane 2); ^35S-labeled rIL-16 plus excess unlabelled rIL-16 incubated with GST-D3D4 (lane 3); ^35S-labeled rIL-16 plus10 ug/ml peptide A (lane 4); ^35S-labeled rIL-16 plus 10 ug/ml peptide B (lane 5); ^35S-labeled rIL-16 plus 10 ug/ml peptide C (lane 6); ); ^35S-labeled rIL-16 plus 10 ug/ml peptide A and peptide B (lane 7). The arrow indicates the position of IL-16 on the gel. The identity of this band was re-confirmed by immunoblotting with anti-IL-16 antibody.
Radiolabeled murine IL-16 was prepared by in vitro translation and transcription (TNT T7, Promega) of a murine IL-16 cDNA construct in pET-16b expressing the C-terminal 119 amino acids of IL-16. Each coupled transcription-translation reaction was conducted in medium supplemented with [^35S]methionine according to the manufacturer's instructions.
A glutathione-S-transferase (GST)-murine D3D4 fusion protein was produced by subcloning the murine D3D4 domain cDNA sequences encoding the CD4 protein open reading frame from Phe^182 to Phe^372 into pGEX-5X.1 (Pharmacia). The GST-D3D4 fusion protein was purified according to the Pharmacia GST-fusion protein purification protocol using glutathione-conjugated Sepharose 4B beads in the presence of 2 mM dTT. […]
To investigate IL-16 interaction with the D3D4 of CD4, the GST-D3D4 fusion protein, or GST alone, was bound to the glutathione-conjugated Sepharose 4B beads. […] The GST-D3D4 or GST proteins were released from the beads by boiling in SDS gel loading buffer, and the supernatant was analyzed by 12% SDS-polyacrylamide gel electrophoresis (SDS-PAGE). The presence of ^35S-labeled mrIL16 was detected by autoradiography of the dried gel. […]

rIL-16 = target: T3, rIL-16 (Mus musculus, UniProt O54824); assay: IL-2R (CD25) induction on rIL-16-stimulated murine splenocytes, flow cytometry; type: cell-based; conditions: for % IL-2R+ CELLS: IL-16 + peptide, concentration not given (10^-6 M or 10^-7 M)
T3 construct: polyhistidine fusion protein containing the 119 C-terminal residues encoded by the previously reported murine cDNA; polyhistidine (cleaved yes); made in house; host or cells: Escherichia coli strain HMS 174, vector pET16b
T3 sequence (O54824 1204-1322): T1 sequence (O54824 1204-1322)
Procedure: Induction of IL-2R (CD25) on rIL-16-stimulated murine splenocytes was detected by staining with FITC-conjugated anti-mouse IL-2R Ab (PharMingen). Cells were fixed with 10% formalin and stored at 4° C. in the dark before analysis with a Becton Dickinson FACScan 440 flow cytometer. The % IL-2R^+ cells was determined by subtracting the % isotype control positive from the total % positive events.
Peptides A (SEQ ID NO:15) and C (SEQ ID NO:19) were inhibitory at 10^−7 M, but not 10^−6 M. The negative control peptide D (SEQ ID NO:20) (10^−6 M) had no effect on rIL-16-stimulated IL-2R expression.
Murine splenocytes were incubated in control buffer, rIL-16 alone, or rIL-16 plus the indicated peptide. IL-2R expression was determined by flow cytometry using FITC-conjugated anti-IL-2R antibody. The % IL-2R^+ was determined by subtracting the FITC-conjugated isotype control antibody binding from the FITC-conjugated anti-IL-2R antibody binding. Isotype control antibody binding ranged from 1% to 4%.

murine rIL-16 = target: T4, murine rIL-16 (Mus musculus, UniProt O54824); assay: murine rIL-16-stimulated murine splenocyte migration, modified Boyden chamber; type: cell-based; conditions: rIL-16 10^-9 M; for inhibition of rIL-16-induced splenocyte migration: peptide 10^-6 M; for IL-16-inhibitory activity (block of murine rIL-16-stimulated murine splenocyte migration): peptide concentration not given
T4 construct: polyhistidine fusion protein containing the 119 C-terminal residues encoded by the previously reported murine cDNA; polyhistidine (cleaved yes); made in house; host or cells: Escherichia coli strain HMS 174, vector pET16b
T4 sequence (O54824 1204-1322): T1 sequence (O54824 1204-1322)
Procedure: Cell migration was assessed using a modified Boyden chamber. […] Cell migration is expressed as the mean % control migration.
Results from multiple experiments were analyzed using Student's t test for paired variables, and Tukey's test for multiple variables. A P value<0.05 was considered significant.
Peptide B (aa 341-352) includes the sequence WQCLLS (residues 344-349, SEQ ID NO:4) which is 100% conserved in all the species examined. Peptide A (aa 327-338) and peptide C (aa 351-362) correspond to the N-terminal and C-terminal flanks of peptide B, respectively. A random scrambled 12-residue peptide (LSKQKMVSREGT) designated peptide D (SEQ ID NO:20) was used a negative control for nonspecific effects of peptide administration on splenocyte motility. Criteria for the design of peptide D included overall hydrophilicity, neutral charge and no cysteine residues (to prevent possible dimer formation).
Murine spleens were harvested from healthy 8-week male BALB/c mice (Jackson Laboratory). Splenocytes were isolated by grinding spleens between fiysted slides in M199 culture medium (M. A. Bioproducts), supplemented with 0.4% bovine serum albumin, 22 mM HEPES buffer, 100 with U/ml of penicillin, 100 μg/ml streptomycin (M199-HPS). Cells were washed and erytbrocytes were lysed in Gey's solution. Splenocytes were washed twice in M199, and resuspended to a final concentration of 2×10^6 cells/ml in RPMI1640 medium (BioWhittaker) supplemented with 10% FBS, 100 U/ml of penicillin and 100 μg/ml of streptomycin. By flow cytometry, 25% of the isolated splenocytes within the lymphocyte-cloud were CD4^+.
Recombinant murine IL-16 was produced in Escherichia coli (strain HMS 174; Novagen) as a polyhistidine fusion protein containing the 119 C-terminal residues encoded by the previously reported murine cDNA (Keane et al., (1998) J. Immunol. 160: 5945-5954), using the bacterial expression vector pET16b (Novagen). The recombinant product corresponds to the secreted form of natural murine IL-16 following cleavage by caspase-3 (Zhang et al. (1998) J. Biol. Chem. 273:1144-1149). The rIL-16 was purified by metal chelation chromatography, and the polyhistidine tag was cleaved with factor Xa (New England Biolabs).

[2] = first line of the peptide's pair
[3] = second line of the peptide's pair

IL-16 binding to GST-D3D4 in the presence of peptide [1] | % IL-2R+ CELLS (rIL-16; [2]) | % IL-2R+ CELLS (rIL-16; [3]) | inhibition of IL-16-stimulated induction of IL-2R (rIL-16; peptide 10^-7 M) | IL-16-inhibitory activity (block of murine rIL-16-stimulated murine splenocyte migration) (murine rIL-16) | Substance | further results
failed to reduce IL-16 binding | 20% | 35% | inhibitory | IL-16-inhibitory activity | GDKVKMDSRIQV [peptide C, 12-residue peptide, aa 351-362 of mouse CD4 D4] | inhibition of rIL-16-induced splenocyte migration (murine rIL-16): inhibit
reduced to background | 22% | 26% | completely inhibited | IL-16-inhibitory activity | TGLWQCLLSEGD (OTHER INFORMATION: Description of Artificial Sequence:IL-16 antagonist peptide) [peptide B, 12-residue peptide, aa 341-352 of mouse CD4 D4] | inhibition of IL-16-stimulated induction of IL-2R (rIL-16; peptide 10^-6 M): completely inhibited
reduced to background | 21% | 37% | inhibitory | IL-16-inhibitory activity | VSEEQKVVQVVA (OTHER INFORMATION: Description of Artificial Sequence:IL-16 antagonist peptide) [peptide A, 12-residue peptide, aa 327-338 of mouse CD4 D4] | inhibition of rIL-16-induced splenocyte migration (murine rIL-16): inhibited

Second part, the substance before the results:

Substance | IL-16 binding to GST-D3D4 in the presence of peptide [1] | % IL-2R+ CELLS (rIL-16; [2]) | % IL-2R+ CELLS (rIL-16; [3]) | inhibition of IL-16-stimulated induction of IL-2R (rIL-16; peptide 10^-7 M) | IL-16-inhibitory activity (block of murine rIL-16-stimulated murine splenocyte migration) (murine rIL-16) | further results
CLLS (OTHER INFORMATION: Description of Artificial Sequence:IL-16 antagonist peptide) | – | – | – | – | – | effect on anti-CD4 antibody OKT4-induced migration (anti-CD4 antibody (OKT4)): unaffected; IL-16-induced migration of human T-cells blocked (IL-16; co-incubation of IL-16 and peptide): approximately 90%; effect on HIV-1 gp120-induced migration (HIV-1 gp120): unaffected
DSGQVLLE (OTHER INFORMATION: Description of Artificial Sequence:IL-16 antagonist peptide) [aa 351-358 of human CD4] | – | – | – | – | – | inhibition of IL-16-mediated biological activity (migration of human T-cells) (IL-16): failed to inhibit
GMWQCLLS (OTHER INFORMATION: Description of Artificial Sequence:IL-16 antagonist peptide) [aa 343-350 of human CD4] | – | – | – | – | – | inhibition of IL-16-mediated biological activity (migration of human T-cells) (IL-16): inhibited all
GMWQCLLSDSGQVLLE (OTHER INFORMATION: Description of Artificial Sequence:IL-16 antagonist peptide) [aa 343-358 of human CD4 D4] | – | – | – | – | – | concentration at which maximal inhibition was achieved (IL-16; dose curve, IL-16-induced migration of human T-cells): ≥ 10 µg/mL; block of IL-16-induced migration of human T-cells (IL-16; peptide 10^-10 M): blocked all
KVSKREKAVWVLNPEA (OTHER INFORMATION: Description of Artificial Sequence:IL-16 antagonist peptide) [16-mer of human CD4 D4] | – | – | – | – | – | effect on IL-16-induced migration of human T-cells (IL-16): failed to effect
TSPKLMLSLKLENKEA (OTHER INFORMATION: Description of Artificial Sequence:IL-16 antagonist peptide) [16-mer of human CD4 D4] | – | – | – | – | – | effect on IL-16-induced migration of human T-cells (IL-16): failed to effect
